Three sequences from the supplement of paper PMC5998384 can be followed below.

Series [1] has as its system HeLa Kyoto. Description: solubility in G1/S (NP-40 vs SDS abundance) (log2 ratio); higher = more soluble. The note with it: cell cycle stage: G1/S.
Series [2] has as its system HeLa Kyoto. Description: melting temperature (median over replicates), in situ; higher = more thermally stable.
Series [3] concerns HeLa Kyoto. Description: solubility change mitosis vs G1/S (difference of NP-40 vs SDS log2 ratios) (log2 ratio difference); higher = more soluble in mitosis.
The subject of series [4] is HeLa Kyoto. Description: thermal stability score vs G1/S (z-score of summed log2 fold changes over temperatures); higher = more thermally stable than in G1/S.
Where [5] appears, read: cell cycle stage: early G1 (4.5 h after nocodazole release).
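Throughout, for melting temperature (median over replicates), in situ: HeLa Kyoto cells synchronized by double thymidine or nocodazole block, proteins quantified by TMT10plex mass spectrometry, three independent biological replicates.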
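Throughout, for solubility change mitosis vs G1/S (difference of NP-40 vs SDS log2 ratios): synchronized HeLa Kyoto cells (double thymidine block for G1/S, nocodazole release for mitosis), protein amounts in NP-40 versus SDS lysates quantified by mass spectrometry, three biological replicates.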
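Throughout, for solubility in G1/S (NP-40 vs SDS abundance): HeLa Kyoto cells arrested at G1/S by double thymidine block, proteins quantified by TMT10plex mass spectrometry in mild NP-40 versus SDS extracts, three biological replicates.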
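Throughout, for thermal stability score vs G1/S (z-score of summed log2 fold changes over temperatures): synchronized HeLa Kyoto cells, proteins quantified by TMT10plex mass spectrometry, three biological replicates, mitosis taken 0.5 h after nocodazole release, G1/S directly after double thymidine block.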

Consider “MSVLGEYERHCDSINSDFGSESGGCGDSSPGPSASQGPRAGGGAAEQEELHYIPIRVLGRGAFGEATLYRRTEDDSLVVWKEVDLTRLSEKERRDALNEIVILALLQHDNIIAYYNHFMDNTTLLIELEYCNGGNLYDKILRQKDKLFEEEMVVWYLFQIVSAVSCIHKAGILHRDIKTLNIFLTKANLIKLGDYGLAKKLNSEYSMAETLVGTPYYMSPELCQGVKYNFKSDIWAVGCVIFELLTLKRTFDATNPLNLCVKIVQGIRAMEVDSSQYSLELIQMVHSCLDQDPEQRPTADELLDRPLLRKRRREMEEKVTLLNAPTKRPRSSTVTEAPIAVVTSRTSEVYVWGGGKSTPQKLDVIKSGCSARQVCAGNTHFAVVTVEKELYTWVNMQGGTKLHGQLGHGDKASYRQPKHVEKLQGKAIRQVSCGDDFTVCVTDEGQLYAFGSDYYGCMGVDKVAGPEVLEPMQLNFFLSNPVEQVSCGDNHVVVLTRNKEVYSWGCGEYGRLGLDSEEDYYTPQKVDVPKALIIVAVQCGCDGTFLLTQSGKVLACGLNEFNKLGLNQCMSGIINHEAYHEVPYTTSFTLAKQLSFYKIRTIAPGKTHTAAIDERGRLLTFGCNKCGQLGVGNYKKRLGINLLGGPLGGKQVIRVSCGDEFTIAATDDNHIFAWGNGGNGRLAMTPTERPHGSDICTSWPRPIFGSLHHVPDLSCRGWHTILIVEKVLNSKTIRSNSSGLSIGTVFQSSSPGGGGGGGGGEEEDSQQESETPDPSGGFRGTMEADRGMEGLISPTEAMGNSNGASSSCPGWLRKELENAEFIPMPDSPSPLSAAFSESEKDTLPYEELQGLKVASEAPLEHKPQVEASSPRLNPAVTCAGKGTPLTPPACACSSLQVEVERLQGLVLKCLAEQQKLQQENLQIFTQLQKLNKKLEGGQQVGMHSKGTQTAKEEMEMDPKPDLDSDSWCLLGTDSCRPSL [NEK9]”, for which the “solubility in G1/S (log2)” value in series [1] is -0.134. In addition, the melting temperature in series [2] (cell cycle stage: G1/S) worked out at 51 °C; in series [2] (cell cycle stage: mitosis) it was 51.2 °C. For the same sequence, in series [3], the “solubility change mitosis (log2)” value was -0.102. In addition, the thermal stability score in series [4] (setting [5]) is 0.358; in series [4] (cell cycle stage: mitosis) it was -0.633.

“MFLLPLPAAGRVVVRRLAVRRFGSRSLSTADMTKGLVLGIYSKEKEDDVPQFTSAGENFDKLLAGKLRETLNISGPPLKAGKTRTFYGLHQDFPSVVLVGLGKKAAGIDEQENWHEGKENIRAAVAAGCRQIQDLELSSVEVDPCGDAQAAAEGAVLGLYEYDDLKQKKKMAVSAKLYGSGDQEAWQKGVLFASGQNLARQLMETPANEMTPTRFAEIIEKNLKSASSKTEVHIRPKSWIEEQAMGSFLSVAKGSDEPPVFLEIHYKGSPNANEPPLVFVGKGITFDSGGISIKASANMDLMRADMGGAATICSAIVSAAKLNLPINIIGLAPLCENMPSGKANKPGDVVRAKNGKTIQVDNTDAEGRLILADALCYAHTFNPKVILNAATLTGAMDVALGSGATGVFTNSSWLWNKLFEASIETGDRVWRMPLFEHYTRQVVDCQLADVNNIGKYRSAGACTAAAFLKEFVTHPKWAHLDIAGVMTNKDEVPYLRKGMTGRPTRTLIEFLLRFSQDNA [LAP3]”: in series [1], the “solubility in G1/S (log2)” value amounted to 0.187. The melting temperature is 53.8 °C in series [2] (cell cycle stage: G1/S) and 52.6 °C in series [2] (cell cycle stage: mitosis). Further, the “solubility change mitosis (log2)” value in series [3] was -0.0176. The thermal stability score in series [4] (setting [5]) was -5.49; in series [4] (cell cycle stage: mitosis) it was -3.93.

For the sequence “MSVLLRSGLGPLCAVARAAIPFIWRGKYFSSGNEPAENPVTPMLRHLMYKIKSTGPITVAEYMKEVLTNPAKGYYVYRDMLGEKGDFITSPEISQIFGELLGIWFISEWMATGKSTAFQLVELGPGRGTLVGDILRVFTQLGSVLKNCDISVHLVEVSQKLSEIQALTLTKEKVPLERNAGSPVYMKGVTKSGIPISWYRDLHDVPKGYSFYLAHEFFDVLPVHKFQKTPQGWREVFVDIDPQVSDKLRFVLAPSATPAEAFIQHDETRDHVEVCPDAGVIIEELSQRIALTGGAALVADYGHDGTKTDTFRGFCDHKLHDVLIAPGTADLTADVDFSYLRRMAQGKVASLGPIKQHTFLKNMGIDVRLKVLLDKSNEPSVRQQLLQGYDMLMNPKKMGERFNFFALLPHQRLQGGRYQRNARQSKPFASVVAGFSELAWQ [NDUFAF7]”, the “solubility in G1/S (log2)” value in series [1] was 0.278. For the same sequence, the results for the melting temperature in series [2] (cell cycle stage: G1/S) and in series [2] (cell cycle stage: mitosis) were 49.2 °C and 49 °C, respectively. The “solubility change mitosis (log2)” value in series [3] was -0.162. The thermal stability score in series [4] (setting [5]) was found to be 0.103; in series [4] (cell cycle stage: mitosis) it was 1.08.
